Data on six molecules can be found in patent US20210393776A1 (FABION PHARMACEUTICALS, published 2021).

Experiment [1] addresses T1, recombinant cyno CD3epsilon/delta Fc(K-H) heterodimer (cynomolgus).
T1 construct: also called cynomolgus CD3epsilon/delta; recombinant cyno CD3epsilon/delta heterodimeric Fc protein; copies: 1 + 1
The experiment can be described thus: ELISA, immobilised antigen, biotinylated protein, streptavidin-HRP, ABTS, OD405. (An ELISA detects its analyte on a solid surface through an enzyme-linked reagent.)

Experiment [2] addresses T2, full length human EpCAM on CHO cells (human, UniProt P16422 24-314).
T2 construct: CHO cells stably expressing full length human EpCAM; also called hu-EpCAM-FL; human EpCAM-FL
T2 sequence: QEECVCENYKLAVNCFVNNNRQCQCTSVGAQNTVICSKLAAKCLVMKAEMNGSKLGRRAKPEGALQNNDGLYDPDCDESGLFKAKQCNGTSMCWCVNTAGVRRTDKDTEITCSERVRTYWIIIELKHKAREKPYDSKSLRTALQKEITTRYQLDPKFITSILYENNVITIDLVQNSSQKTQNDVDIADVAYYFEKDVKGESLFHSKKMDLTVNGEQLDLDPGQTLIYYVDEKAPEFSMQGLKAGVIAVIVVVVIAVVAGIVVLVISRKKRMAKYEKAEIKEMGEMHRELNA
The experiment can be described thus: flow cytometry on CHO cells stably expressing full length human EpCAM, PE detection. A general note: Flow cytometry measures light scatter and fluorescence of single cells or particles in a stream.

In experiment [3] the target is T3, human CD3epsilonAA1-27.Fc (human).
T3 construct: also called recombinant human CD3epsilon N-terminal peptide (aa1-27.Fc fusion); CD3epsilon N-terminal amino acid 1-27 peptide Fc fusion
Kind of experiment: ELISA, immobilised antigen, biotinylated protein, streptavidin-HRP, ABTS, OD405.

The target in experiment [4] is T4, human CD3 on cells (Jurkat cells; T cells in human PBMCs) (human, UniProt P07766 23-207).
T4 construct: whole, on cells; the other chains of the complex are present on the cells; also called CD3 on Jurkat cells; CD3 on T cells in PBMC preparation
The experiment can be described thus: flow cytometry on Jurkat cells, biotinylated protein, streptavidin-PE.

Experiment [5] concerns the target T2, full length human EpCAM on CHO cells. The experiment can be described thus: flow cytometry on CHO cells stably expressing full length human EpCAM, PE detection. The source holds these as a separate data set.
Experiment [6] concerns the target T1, recombinant cyno CD3epsilon/delta …. The experiment can be described thus: ELISA, immobilised antigen, biotinylated protein, streptavidin-HRP, ABTS, OD405. The source holds these as a separate data set.
In experiment [7] the target is T3, human CD3epsilonAA1-27.Fc. Described as above. This is another data set of the same source.
Experiment [8] addresses T2, full length human EpCAM on CHO cells. The experiment can be described thus: flow cytometry on CHO cells stably expressing full length human EpCAM, PE detection. The source holds these as a separate data set.
The target in experiment [9] is T1, recombinant cyno CD3epsilon/delta …. Kind of experiment: ELISA, immobilised antigen, biotinylated protein, streptavidin-HRP, ABTS, OD405. This is another data set of the same source.
Experiment [10] addresses T3, human CD3epsilonAA1-27.Fc. The experiment is described as above. This is another data set of the same source.

Like-named read-outs stand apart in the source and are kept apart here.

B1: EpCAM2.2-(H)-hu-1F3.1 Fab (bispecific antibody)
heavy chain Fd with anti-EpCAM scFv EpCAM2.2 at the N-terminus: QVQLQESGPGLVKPSETLTLTCSVSGGSISGYYWSWIRQPPGMGLEWIGSVHHSGSTSYNPSLKSRVTISVDTSKNQFSLKLNSVTAADTAVYYCARYRGSGLDYWGQGTLVTVSSGGGGSGGGGSGGGGSQSVLTQPPSVSAAPGQKVTISCSGDSSNIGKNYVSWYQQLPGTAPKLLIYENNERPSGVPDRFSGSKSGTSATLGITGLQTGDEADYYCAAWDTSLSARVFGGGTKVTVLGRAEVQLVESGGGLVQPGGSLRLSCAASGFTFSTYAMNWVRQAPGKGLEWVSRIRSKYNNYATYYADSVKDRFTISRDDSKNTLYLQMNSLRAEDTAVYYCARHGNFGNSYVSWFAYWGQGTMVTVSSASTKGPSVFPLAPCSRSTSESTAALGCLVKDYFPEPVTVSWNSGALTSGVHTFPAVLQSSGLYSLSSVVTVPSSNFGTQTYTCNVDHKPSNTKVDKTVGGGGSHHHHHHH
light chain, unfused: QAVVTQEPSLTVSPGGTVTLTCRSSTGAVTTSNYANWVQQKPGQAPRGLIGGTNKRAPGTPARFSGSLLGGKAALTLSGVQPEDEAEYYCALWYSNLWVFGGGTKLTVLGQPKAAPSVTLFPPSSEELQANKATLVCLISDFYPGAVTVAWKADSSPVKAGVETTTPSKQSNNKYAASSYLSLTPEQWKSHRSYSCQVTHEGSTVEKTVAPTECS
notes: member of groups m21 and m31
The EC50 (read off the curve) is the concentration giving half of the maximal effect. Turning to B1, the “EC50 (read off the curve)” value in [1] is roughly 2 nM. For the same molecule, in experiment [2], the binding result is on record as “binds”.

B2: EpCAM2.2-(H+L)-hu-1F3.1 MSFP (bispecific antibody)
heavy: QVQLQESGPGLVKPSETLTLTCSVSGGSISGYYWSWIRQPPGMGLEWIGSVHHSGSTSYNPSLKSRVTISVDTSKNQFSLKLNSVTAADTAVYYCARYRGSGLDYWGQGTLVTVSSGGGGSGGGGSGGGGSQSVLTQPPSVSAAPGQKVTISCSGDSSNIGKNYVSWYQQLPGTAPKLLIYENNERPSGVPDRFSGSKSGTSATLGITGLQTGDEADYYCAAWDTSLSARVFGGGTKVTVLGRAEVQLVESGGGLVQPGGSLRLSCAASGFTFSTYAMNWVRQAPGKGLEWVSRIRSKYNNYATYYADSVKDRFTISRDDSKNTLYLQMNSLRAEDTAVYYCARHGNFGNSYVSWFAYWGQGTMVTVSSASTKGPSVFPLAPCSRSTSESTAALGCLVKDYFPEPVTVSWNSGALTSGVHTFPAVLQSSGLYSLSSVVTVPSSNFGTQTYTCNVDHKPSNTKVDKTVGGGGSHHHHHHH
light: QVQLQESGPGLVKPSETLTLTCSVSGGSISGYYWSWIRQPPGMGLEWIGSVHHSGSTSYNPSLKSRVTISVDTSKNQFSLKLNSVTAADTAVYYCARYRGSGLDYWGQGTLVTVSSGGGGSGGGGSGGGGSQSVLTQPPSVSAAPGQKVTISCSGDSSNIGKNYVSWYQQLPGTAPKLLIYENNERPSGVPDRFSGSKSGTSATLGITGLQTGDEADYYCAAWDTSLSARVFGGGTKVTVLGRAQAVVTQEPSLTVSPGGTVTLTCRSSTGAVTTSNYANWVQQKPGQAPRGLIGGTNKRAPGTPARFSGSLLGGKAALTLSGVQPEDEAEYYCALWYSNLWVFGGGTKLTVLGQPKAAPSVTLFPPSSEELQANKATLVCLISDFYPGAVTVAWKADSSPVKAGVETTTPSKQSNNKYAASSYLSLTPEQWKSHRSYSCQVTHEGSTVEKTVAPTECS
notes: (H + L) format has a GlyArgAla linker on both chains; His tag at the C-terminus of the Fd; also called double fusion of EpCAM2.2 scFv to both the HC and LC of hu-1F3.1 Fab
With B2, the “EC50 (read off the curve)” value in experiment [3] and in experiment [1] was roughly 3 nM in each case.

B3: anti EpCAM scFv fusion to the LC alone of OKT3 Fab (bispecific antibody)
heavy: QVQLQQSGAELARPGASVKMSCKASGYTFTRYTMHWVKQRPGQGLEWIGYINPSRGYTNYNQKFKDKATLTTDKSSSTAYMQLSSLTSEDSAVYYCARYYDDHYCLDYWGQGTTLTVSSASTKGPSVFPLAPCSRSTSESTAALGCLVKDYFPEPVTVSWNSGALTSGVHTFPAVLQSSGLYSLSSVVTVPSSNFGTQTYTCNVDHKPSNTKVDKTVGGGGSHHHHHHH
light: QVQLQQSGGGLVQPGGSLRLSCAASGFTFSNYWMSWVRQAPGKGLEWVANIKQDGSEKFYVDSVKGRFTISRDNAKNSLYLQMNSLRAEDMAVYYCARVGGAWELGYWGQGTLVTVSAGGGGSGGGGSGGGGSGAQSVLTQPPSVSGAPGQRVTISCTGSSSNIGSYYGVHWYQQIPGTAPKLLIYSDTNRPSGVPDRFSGSKSGTSASLAITGLQAEDEADYYCQSYDSSLSGRVFGGGTKVTVLGRAQIVLTQSPAIMSASPGEKVTMTCSASSSVSYMNWYQQKSGTSPKRWIYDTSKLASGVPAHFRGSGSGTSYSLTISGMEAEDAATYYCQQWSSNPFTFGSGTKLEINRTVAAPSVFIFPPSDEQLKSGTASVVCLLNNFYPREAKVQWKVDNALQSGNSQESVTEQDSKDSTYSLSSTLTLSKADYEKHKVYACEVTHQGLSSPVTKSFNRGEC
notes: also called EpCAM1.1×OKT3 Fab fusion, LC only
In the case of B3, the binding result is “no binding” in experiment [4], “binds” in experiment [5], “no binding (tested: about 80 nM (last point; axis to 100 nM))” in experiment [6] and “no binding (tested: about 80 nM (last point; axis to 100 nM))” in experiment [7].

B4: EpCAM1.1-(L)-hu-1F3.1 Fab (bispecific antibody)
heavy chain Fd (VH-CH1), unfused: EVQLVESGGGLVQPGGSLRLSCAASGFTFSTYAMNWVRQAPGKGLEWVSRIRSKYNNYATYYADSVKDRFTISRDDSKNTLYLQMNSLRAEDTAVYYCARHGNFGNSYVSWFAYWGQGTMVTVSSASTKGPSVFPLAPCSRSTSESTAALGCLVKDYFPEPVTVSWNSGALTSGVHTFPAVLQSSGLYSLSSVVTVPSSNFGTQTYTCNVDHKPSNTKVDKTVGGGGSHHHHHHH
light chain with anti-EpCAM scFv EpCAM1.1 at the N-terminus: QVQLQQSGGGLVQPGGSLRLSCAASGFTFSNYWMSWVRQAPGKGLEWVANIKQDGSEKFYVDSVKGRFTISRDNAKNSLYLQMNSLRAEDMAVYYCARVGGAWELGYWGQGTLVTVSAGGGGSGGGGSGGGGSGAQSVLTQPPSVSGAPGQRVTISCTGSSSNIGSYYGVHWYQQIPGTAPKLLIYSDTNRPSGVPDRFSGSKSGTSASLAITGLQAEDEADYYCQSYDSSLSGRVFGGGTKVTVLGRAQAVVTQEPSLTVSPGGTVTLTCRSSTGAVTTSNYANWVQQKPGQAPRGLIGGTNKRAPGTPARFSGSLLGGKAALTLSGVQPEDEAEYYCALWYSNLWVFGGGTKLTVLGQPKAAPSVTLFPPSSEELQANKATLVCLISDFYPGAVTVAWKADSSPVKAGVETTTPSKQSNNKYAASSYLSLTPEQWKSHRSYSCQVTHEGSTVEKTVAPTECS
notes: member of group m19; also called EpCAM1.1-(L)-hu-1F3 Fab
For the molecule B4, the binding result in [8], in experiment [9] and in [10] was “binds” in each case.

B5: EpCAM1.1-(H+L)-hu-1F3.1 Fab (bispecific antibody)
heavy chain Fd with anti-EpCAM scFv EpCAM1.1 at the N-terminus: QVQLQQSGGGLVQPGGSLRLSCAASGFTFSNYWMSWVRQAPGKGLEWVANIKQDGSEKFYVDSVKGRFTISRDNAKNSLYLQMNSLRAEDMAVYYCARVGGAWELGYWGQGTLVTVSAGGGGSGGGGSGGGGSGAQSVLTQPPSVSGAPGQRVTISCTGSSSNIGSYYGVHWYQQIPGTAPKLLIYSDTNRPSGVPDRFSGSKSGTSASLAITGLQAEDEADYYCQSYDSSLSGRVFGGGTKVTVLGRAEVQLVESGGGLVQPGGSLRLSCAASGFTFSTYAMNWVRQAPGKGLEWVSRIRSKYNNYATYYADSVKDRFTISRDDSKNTLYLQMNSLRAEDTAVYYCARHGNFGNSYVSWFAYWGQGTMVTVSSASTKGPSVFPLAPCSRSTSESTAALGCLVKDYFPEPVTVSWNSGALTSGVHTFPAVLQSSGLYSLSSVVTVPSSNFGTQTYTCNVDHKPSNTKVDKTVGGGGSHHHHHHH
light chain with anti-EpCAM scFv EpCAM1.1 at the N-terminus: QVQLQQSGGGLVQPGGSLRLSCAASGFTFSNYWMSWVRQAPGKGLEWVANIKQDGSEKFYVDSVKGRFTISRDNAKNSLYLQMNSLRAEDMAVYYCARVGGAWELGYWGQGTLVTVSAGGGGSGGGGSGGGGSGAQSVLTQPPSVSGAPGQRVTISCTGSSSNIGSYYGVHWYQQIPGTAPKLLIYSDTNRPSGVPDRFSGSKSGTSASLAITGLQAEDEADYYCQSYDSSLSGRVFGGGTKVTVLGRAQAVVTQEPSLTVSPGGTVTLTCRSSTGAVTTSNYANWVQQKPGQAPRGLIGGTNKRAPGTPARFSGSLLGGKAALTLSGVQPEDEAEYYCALWYSNLWVFGGGTKLTVLGQPKAAPSVTLFPPSSEELQANKATLVCLISDFYPGAVTVAWKADSSPVKAGVETTTPSKQSNNKYAASSYLSLTPEQWKSHRSYSCQVTHEGSTVEKTVAPTECS
notes: member of group m19; also called EpCAM1.1-(H+L)-hu-1F3 Fab
For the molecule B5, the binding result in [8], in experiment [9] and in [10] was “binds” throughout.

B6: EpCAM2.2-(L)-hu-1F3.1 Fab (bispecific antibody)
heavy chain Fd (VH-CH1), unfused: EVQLVESGGGLVQPGGSLRLSCAASGFTFSTYAMNWVRQAPGKGLEWVSRIRSKYNNYATYYADSVKDRFTISRDDSKNTLYLQMNSLRAEDTAVYYCARHGNFGNSYVSWFAYWGQGTMVTVSSASTKGPSVFPLAPCSRSTSESTAALGCLVKDYFPEPVTVSWNSGALTSGVHTFPAVLQSSGLYSLSSVVTVPSSNFGTQTYTCNVDHKPSNTKVDKTVGGGGSHHHHHHH
light chain with anti-EpCAM scFv EpCAM2.2 at the N-terminus: QVQLQESGPGLVKPSETLTLTCSVSGGSISGYYWSWIRQPPGMGLEWIGSVHHSGSTSYNPSLKSRVTISVDTSKNQFSLKLNSVTAADTAVYYCARYRGSGLDYWGQGTLVTVSSGGGGSGGGGSGGGGSQSVLTQPPSVSAAPGQKVTISCSGDSSNIGKNYVSWYQQLPGTAPKLLIYENNERPSGVPDRFSGSKSGTSATLGITGLQTGDEADYYCAAWDTSLSARVFGGGTKVTVLGRAQAVVTQEPSLTVSPGGTVTLTCRSSTGAVTTSNYANWVQQKPGQAPRGLIGGTNKRAPGTPARFSGSLLGGKAALTLSGVQPEDEAEYYCALWYSNLWVFGGGTKLTVLGQPKAAPSVTLFPPSSEELQANKATLVCLISDFYPGAVTVAWKADSSPVKAGVETTTPSKQSNNKYAASSYLSLTPEQWKSHRSYSCQVTHEGSTVEKTVAPTECS
notes: member of groups m21 and m31; also called EpCAM2.2-(L)-hu-1F3 Fab
For B6, in experiment [3], the “EC50 (read off the curve)” value was roughly 2 nM. In addition, the binding result in [1] and in experiment [2] was “binds” in each case.
